Test [1] concerns the target T1, RBPJ-(53-474) (mouse, UniProt P31266 53-474). As to the kind of experiment: ITC. A general note: In ITC the heat of successive injections is recorded.
Test [2] concerns the target T1, RBPJ-(53-474). As to the kind of experiment: ITC. The source holds these as a separate data set.

T1 sequence (P31266 53-474): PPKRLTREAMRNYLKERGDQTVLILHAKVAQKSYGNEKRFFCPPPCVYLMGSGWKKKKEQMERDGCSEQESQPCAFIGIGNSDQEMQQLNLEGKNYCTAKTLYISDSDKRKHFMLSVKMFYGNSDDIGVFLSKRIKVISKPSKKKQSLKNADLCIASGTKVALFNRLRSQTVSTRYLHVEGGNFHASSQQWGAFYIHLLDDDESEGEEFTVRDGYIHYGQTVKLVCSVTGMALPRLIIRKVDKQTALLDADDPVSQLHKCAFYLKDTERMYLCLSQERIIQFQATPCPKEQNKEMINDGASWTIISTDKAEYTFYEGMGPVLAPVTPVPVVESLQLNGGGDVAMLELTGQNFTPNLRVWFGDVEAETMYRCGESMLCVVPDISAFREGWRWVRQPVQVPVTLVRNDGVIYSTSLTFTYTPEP

B1: L3MBTL3-(31-70) (domain or fragment, human, UniProt Q96JM7 31-70, looked up)
chain: SDLKFRVNEFGALEVITDENEMENVKKATATTTWMVPTAQ
For the molecule B1, in test [1], the Ka was found to be 2.27e+06 M⁻¹, binding was characterised by a dissociation constant (Kd) of 450 nM and the dH is -7.52 kcal/mol. Besides, in test [2], the stoichiometry N (in general, the number of molecules, sites or subunits per partner or assembly) was found to be 1.
